Molecular target: HA-Rad18 S-Box-A (human) (UniProt Q9NS91)
Experiment: co-IP

## DNA Polymerase eta (Polη) (from UniProt Q9Y253 1-713) (natural protein)
  percent reduction of association relative to Rad18 WT (UV-treated cells): > 80%
